Columns and labels:
streptavidin [1] = biological target: T1, streptavidin (UniProt P22629 P22629:25-183); assay: sandwich print slide capture, 37 C, PBS washes; conditions: chain copies: 4 inferred
streptavidin [2] = biological target: T1, streptavidin; assay: sandwich print slide capture, T7 transcription mix, 37 C, PBS washes; conditions: chain copies: 4 inferred; label: Cy3-UTP incorporated
Procedure: (§1) ˜10 μl spots of 5 mM tobramycin or 16.6 μM streptavadin in PBS were pipetted onto NHS-activated slides (Schott Nexterion Slide H). The slides were incubated at 37° C. in a humidified petri dish for ˜1 hour. The slides were washed ˜3× with ˜5 ml PBST (0.5% Tween) and ˜1× with H₂O. The remainder of the NHS-activated surface was blocked with ethanolamine. ˜5 ml of 50 mM ethanolamine-HCl was used to cover the slides and they were incubated at room temperature for ˜1 hr. The slides were washed ˜3× with ˜5 ml PBST (0.5% Tween), 1× with H₂O and dried in air.
(§2) Following incubation at 37° C. for ˜1-4 hrs, the slides were separated and the in vitro transcription mix was recovered from the slide surface using a pipette. The DNA template slide was washed ˜3× with ˜5 ml PBS, ˜1× with ˜5 ml H₂O and air dried. The RNA-binding slide was washed ˜3× with ˜5 ml PBS, ˜1×˜5 ml H₂O and air dried. Cy-labelled RNA was visualized at 532 nm for Cy3 or 639 nm for Cy5. For unlabelled RNA, the RNA-binding slide was stained by covering the slide with ˜5 ml SYBR gold (Invitrogen, Paisley, UK; 5 μl of SYBR gold in ˜25 ml PBS) for 10 minutes and visualised with a UV transilluminator.
(§3) Only the MicASAApt, incorporating the stretpavadin aptamer, bound to the streptavidin RNA-binding slide. […]

streptavidin [3] = biological target: T1, streptavidin; assay: bound streptavidin spot on slide also carrying tobramycin spot, 37 C, PBS washes; conditions: chain copies: 4 inferred; label: Cy3-UTP incorporated
Procedure: as §1, §2

streptavidin [4] = biological target: T1, streptavidin; assay: no-aptamer control, sandwich print slide capture, 37 C, PBS washes; conditions: chain copies: 4 inferred; label: Cy3-UTP incorporated
Procedure: as §1, §2, §3

T1 sequence (P22629 25-183, one chain of several): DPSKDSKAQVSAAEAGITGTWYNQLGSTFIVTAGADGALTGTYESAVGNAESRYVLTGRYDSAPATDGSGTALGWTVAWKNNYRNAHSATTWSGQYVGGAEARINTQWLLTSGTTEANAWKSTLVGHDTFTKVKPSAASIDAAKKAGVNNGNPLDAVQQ

B1: U1SAApt RNA (ssRNA)
RNA: GGGUAUCCAUUGCACUCCGGAUGCCUUUUUUUUUUUUUUUUUUUUUGUGUGACCGACCAGAAUCAUGCAAGUGCGUAAGAUAGUCGCGGGCCGGGCACACA
Q: Does B1 bind (streptavidin [1]; label: Cy3-UTP incorporated)?
A: binds

B2: Qrr1SAApt RNA (ssRNA)
RNA: GGGUGACCCGCAAGGGUCACCUAGCCAACUGACGUUGUUAGUGAAUAAUCAAUGUUCACAAAUAACAGCCAAUAGACUCAUUCUAUUGGCUAUUUUUUUUUUUUUUUUUUUUUUUUUUUUGUGUGACCGACCAGAAUCAUGCAAGUGCGUAAGAUAGUCGCGGGCCGGGCACACA
Q: Does B2 bind (streptavidin [1]; label: Cy5-UTP incorporated)?
A: binds

B3: MicASAApt RNA (ssRNA)
RNA: GGGGAAAGACGCGCAUUUGUUAUCAUCAUCCCUGAAUUCAGAGAUGAAAUUUUGGCCACUCACGAGUGGCCUUUUACACACACACACACACACACGCAUGCAUACCGACCAGAAUCAUGCAAGUGCGUAAGAUAGUCGCGGGCCGGGAUGCAUGC
Q: Does B3 bind (streptavidin [2])?
A: binds

B4: M-SSAApt RNA (ssRNA)
RNA: GAAAGACGCGCAUUUGUUAUCAUCAUCCCUGGGAAAGCGAGGCUUUCCCUGGCCACUCACGAGUGGCCUUUUACACACACACACACACACACGCAUGCAUACCGACCAGAAUCAUGCAAGUGCGUAAGAUAGUCGCGGGCCGGGAUGCAUGC
Q: Does B4 bind (streptavidin [3])?
A: binds

B5: MicA RNA without aptamer (ssRNA)
RNA: GGGGAAAGACGCGCAUUUGUUAUCAUCAUCCCUGAAUUCAGAGAUGAAAUUUUGGCCACUCACGAGUGGCCUUUU
Q: Does B5 bind (streptavidin [4])?
A: no binding

— patent publication US20140087972, “METHOD OF IMMOBILISING RNA ONTO A SURFACE” (UNIVERSITY OF PORTSMOUTH, published 2014)
